Proportion of monomers and stoichiometry N data for 3 substances are collected here from publication PMC11761039.

In test [1] the target is MBP-tagged G2L4 RT dimer interface NTE + Thumb mutant (R12/Y15/R398A). Description: native gel or EMSA. A general note: A gel shift assay detects complexes by their altered migration in electrophoresis.
Test [2] deals with MBP-tagged G2L4 RT dimer interface Thumb mutant (R397/R398/R404A). Description: native gel or EMSA.
Test [3] has as its target MBP-tagged wild-type G2L4 RT. The test can be described thus: SEC. (In general: SEC sorts molecules by how far they enter the pores of the column.)

As for “MBP-tagged G2L4 RT dimer interface NTE + Thumb mutant (R12/Y15/R398A) (enzyme)”, in test [1], the proportion of monomers was found to be 36%.

As for “MBP-tagged G2L4 RT dimer interface Thumb mutant (R397/R398/R404A) (enzyme)”, the proportion of monomers in test [2] is 25%.

Take MBP-tagged wild-type G2L4 RT (enzyme): in test [3], the stoichiometry N turned out to be 2.

A word on the stoichiometry N: it is the number of molecules, sites or subunits per partner or assembly.
